In paper PMC6667623, “Regulation of Glutarate Catabolism by GntR Family Regulator CsiR and LysR Family Regulator GcdR in Pseudomonas putida KT2440” (mBio, 2019):
Each block holds one molecule with its values, some of them ahead of it.

Tests used:
[1] = biological target: His6-tagged GcdR of P. putida KT2440 (Pseudomonas putida KT2440) (UniProt Q88RH3); assay: SEC; Superdex 200 10/300 GL gel filtration of purified GcdR against molecular mass standards, compared with SDS-PAGE; buffer A (20 mM sodium phosphate, 500 mM sodium chloride, pH 7.4), 0.5 ml min^-1
[2] = biological target: T1, GcdR (Pseudomonas putida KT2440) (UniProt Q88RH3); assay: EMSA; conditions: 10 mM Tris-HCl pH 7.4, 50 mM KCl, 0.5 mM EDTA, 10% glycerol, 1 mM DTT; 30 C, 30 min; 6% native PAGE at 4 C
T1 sequence: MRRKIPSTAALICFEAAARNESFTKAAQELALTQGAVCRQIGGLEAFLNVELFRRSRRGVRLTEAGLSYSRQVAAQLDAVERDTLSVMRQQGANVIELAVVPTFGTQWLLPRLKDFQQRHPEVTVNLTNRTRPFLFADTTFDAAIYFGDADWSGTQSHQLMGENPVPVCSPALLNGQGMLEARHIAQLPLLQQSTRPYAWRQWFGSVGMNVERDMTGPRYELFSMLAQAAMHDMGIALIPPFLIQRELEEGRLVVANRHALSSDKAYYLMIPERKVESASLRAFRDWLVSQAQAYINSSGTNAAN

[3] = biological target: T2, CsiR (Pseudomonas putida KT2440) (UniProt Q88IU1); assay: EMSA; conditions: 10 mM Tris-HCl pH 7.4, 50 mM KCl, 0.5 mM EDTA, 10% glycerol, 1 mM DTT; 30 C, 30 min; 6% native PAGE at 4 C
T2 sequence: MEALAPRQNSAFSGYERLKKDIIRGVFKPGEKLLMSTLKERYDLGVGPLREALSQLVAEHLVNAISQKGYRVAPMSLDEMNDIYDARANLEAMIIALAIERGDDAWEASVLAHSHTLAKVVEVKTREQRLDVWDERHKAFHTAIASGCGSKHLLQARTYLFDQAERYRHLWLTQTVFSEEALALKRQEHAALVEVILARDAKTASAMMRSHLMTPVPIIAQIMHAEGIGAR

[4] = biological target: the molecule itself; assay: SEC; Superdex 200 10/300 GL gel filtration of purified CsiR against molecular mass standards, compared with SDS-PAGE; buffer C (50 mM sodium phosphate, 150 mM sodium chloride, pH 7.2), 0.5 ml min^-1

stoichiometry N [1]: 4
Molecule: His6-tagged GcdR of P. putida KT2440 (from UniProt Q88RH3 1-305) (natural protein)

Molecule: GCCGCCTCGAAGCAAATCAGGGCGGCGGTACTGGGGATCTTACGGCGCATGTACGTCAACCTCACTTGTAAGGCTGTCAATAAGGCGTTTTGCCGATTTACGGAGTGACAAAATATCACTAATCGGTGCGCAATCCTCGTTTGTCGCCGCAGCCGATCAGGCCTAGGCTCAAAGGCACAAGAAACTGACCCCTATTTCGAGGATTCGCTCATGGTCGGTAAAGCAAGTTTCAACTGGATCGACCCGTTGCTGCTGGATCA (double strand)
binding [2]: binds

Molecule: GATCCTGTTCCTCAAAACGTTTTGCCGATCATACCGAAACCCTCTGCTGACGAAAAACAATGGACAAACACGAGTAGTGTCGTTGAAAAATAAAAATGTAGACATTTTCAGTTAGTGGCGATATTTTTACCTCGCCCGCACTGATCCAGGTCATGACCGGACGGCGCCATCTACTTTTTTAGCCAGGACACTGCC (double strand) [F1 (csiR-csiD intergenic region)]
binding [3]: binds

B1: His6-tagged CsiR protein of P. putida KT2440 (natural protein, Pseudomonas putida KT2440, UniProt Q88IU1 1-231, looked up)
chain: MEALAPRQNSAFSGYERLKKDIIRGVFKPGEKLLMSTLKERYDLGVGPLREALSQLVAEHLVNAISQKGYRVAPMSLDEMNDIYDARANLEAMIIALAIERGDDAWEASVLAHSHTLAKVVEVKTREQRLDVWDERHKAFHTAIASGCGSKHLLQARTYLFDQAERYRHLWLTQTVFSEEALALKRQEHAALVEVILARDAKTASAMMRSHLMTPVPIIAQIMHAEGIGAR
notes: CsiR, GntR family transcriptional regulator of Pseudomonas putida KT2440, encoded by csiR (pp2908); gene amplified from genomic DNA with primers csiR-F/csiR-R and cloned BamHI/HindIII into pETDuet-1; Cloning into the BamHI/HindIII sites of pETDuet-1 would usually give an N-terminal His tag (surmise); No tag cleavage is described; also called GntR family regulator CsiR; source: E. coli BL21(DE3) …
stoichiometry N [4]: 2
